Test results from the RNAGym collection of RNA variant scans (doi:10.1093/nar/gkz1192).

B1: CPEB3 Ribozyme (parent)
chain: UAACAGGGGGCCACAGCAGAAGCGUUCACGUCGCAGCCCCUGUCAGAUUCUGGUGAAUCUGCGAAUUCUGCUGUAUAUCUC

Variants of: B1
Assay: self-cleavage, relative activity (ratio to wild type); higher = more cleavage; in vitro, sequencing
Outline: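 For each CPEB3 ribozyme variant, relative activity is its cleaved/total read fraction divided by the unmutated ribozyme's. Barcoded error-prone PCR libraries were transcribed by T7 RNA polymerase (5 hours, 37°C) and held in DNase I for 15 min before an EDTA stop, with cleavage occurring throughout. Template-switching reverse transcription and Illumina sequencing were used to read the RNAs. A 5-read minimum applied, and results are the mean of three batches.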
UAACAGGGGGCCACAGCAGAAGCGUUCACGUCGCAGCCCCUGCCAGAUUCUGGUGAAUCUGCGAAUUCUGCUGUUUAUCUC [U43C A75U] gave a self-cleavage of 0.62.
In the case of UAACAGGGGGCCACAGCAGAAGCGUUCACGUCGCAGCCCCUGCCAGAUUCUGGUGAAUCUGCGAAUUCUGCUGUCUAUCUC [U43C A75C], the self-cleavage is reported as 0.84.
UAACAGGGGGCCACAGCAGAAGCGUUCACGUCGCAGCCCCUGCCAGAUUCUGGUGAAUCUGCGAAUUCUGCUGUGUAUCUC [U43C A75G] showed a self-cleavage of 0.39.
Variant UAACAGGGGGCCACAGCAGAAGCGUUCACGUCGCAGCCCCUGCCAGAUUCUGGUGAAUUUGCGAAUUCUGCUGUAUAUCUC [U43C C59U] has a self-cleavage of 0.52.
In the case of UAACAGGGGGCCACAGCAGAAGCGUUCACGUCGCAGCCCCUGCCAGAUUCUGGUGAAUAUGCGAAUUCUGCUGUAUAUCUC [U43C C59A], the self-cleavage is reported as 0.12.
UAACAGGGGGCCACAGCAGAAGCGUUCACGUCGCAGCCCCUGCCAGAUUCUUGUGAAUCUGCGAAUUCUGCUGUAUAUCUC [U43C G52U] showed a self-cleavage of 1.06.
With UAACAGGGGGCCACAGCAGAAGCGUUCACGUCGCAGCCCCUGCCAGAUUCUCGUGAAUCUGCGAAUUCUGCUGUAUAUCUC [U43C G52C] the self-cleavage was 0.77.
For UAACAGGGGGCCACAGCAGAAGCGUUCACGUCGCAGCCCCUGCCAGAUUCUAGUGAAUCUGCGAAUUCUGCUGUAUAUCUC [U43C G52A], the self-cleavage was 0.92.
For UAACAGGGGGCCACAGCAGAAGCGUUCACGUCGCAGCCCCUGCCAGAUUCUGAUGAAUCUGCGAAUUCUGCUGUAUAUCUC [U43C G53A], the self-cleavage was 0.87.
For UAACAGGGGGCCACAGCAGAAGCGUUCACGUCGCAGCCCCUGCCAGAUUCUGCUGAAUCUGCGAAUUCUGCUGUAUAUCUC [U43C G53C], the self-cleavage was 0.88.
UAACAGGGGGCCACAGCAGAAGCGUUCACGUCGCAGCCCCUGCCAGAUUCUGGUGAAUCUGUGAAUUCUGCUGUAUAUCUC [U43C C62U] showed a self-cleavage of 0.3.
UAACAGGGGGCCACAGCAGAAGCGUUCACGUCGCAGCCCCUGCCAGAUUCUGGUGAAUCUGGGAAUUCUGCUGUAUAUCUC [U43C C62G] showed a self-cleavage of 0.21.
UAACAGGGGGCCACAGCAGAAGCGUUCACGUCGCAGCCCCUGCCAGAUUCUGGUGAAUCUGAGAAUUCUGCUGUAUAUCUC [U43C C62A] showed a self-cleavage of 0.31.
For UAACAGGGGGCCACAGCAGAAGCGUUCACGUCGCAGCCCCUGCCAGAUUCUGGUGAAUCUGCGAGUUCUGCUGUAUAUCUC [U43C A65G], the self-cleavage was 0.31.
In the case of UAACAGGGGGCCACAGCAGAAGCGUUCACGUCGCAGCCCCUGCCAGAUUCUGGUGAAUCUGCGAUUUCUGCUGUAUAUCUC [U43C A65U], the self-cleavage is reported as 0.19.
UAACAGGGGGCCACAGCAGAAGCGUUCACGUCGCAGCCCCUGCCAGAUUCUGGUGAAUCUGCGAAUUCUGUUGUAUAUCUC [U43C C71U] showed a self-cleavage of 0.36.
UAACAGGGGGCCACAGCAGAAGCGUUCACGUCGCAGCCCCUGCCAGAUUCUGGUGAAUCUGCGAAUUCUGGUGUAUAUCUC [U43C C71G] gave a self-cleavage of 0.28.
With UAACAGGGGGCCACAGCAGAAGCGUUCACGUCGCAGCCCCUGCCAGAUUCUGGUGAAUCUGCGAAUUCUGAUGUAUAUCUC [U43C C71A] the self-cleavage was 0.36.
For UAACAGGGGGCCACAGCAGAAGCGUUCACGUCGCAGCCCCUGCCAGAUUCUGGUGAAUCUGCGAAUUCUGCUGUAUAUUUC [U43C C79U], the self-cleavage was 0.91.
UAACAGGGGGCCACAGCAGAAGCGUUCACGUCGCAGCCCCUGCCAGAUUCUGGUGAAUCUGCGAAUUCUGCUGUAUAUAUC [U43C C79A] gave a self-cleavage of 0.8.
For UAACAGGGGGCCACAGCAGAAGCGUUCACGUCGCAGCCCCUGCCAGAUUCUGGUGAAUCUGCGAAUUCUGCUGUAUAUCUU [U43C C81U], the self-cleavage was 0.7.
UAACAGGGGGCCACAGCAGAAGCGUUCACGUCGCAGCCCCUGCCAGAUUCUGGUGAAUCUGCGAAUUCUGCUGUAUAUCUA [U43C C81A] showed a self-cleavage of 0.92.
Work on UAACAGGGGGCCACAGCAGAAGCGUUCACGUCGCAGCCCCUGCCAGAUUAUGGUGAAUCUGCGAAUUCUGCUGUAUAUCUC [U43C C50A] yielded a self-cleavage of 0.31.
For UAACAGGGGGCCACAGCAGAAGCGUUCACGUCGCAGCCCCUGCCAGAUUUUGGUGAAUCUGCGAAUUCUGCUGUAUAUCUC [U43C C50U], the self-cleavage was 0.24.
Work on UAACAGGGGGCCACAGCAGAAGCGUUCACGUCGCAGCCCCUGCCAGAUUCUGGUGAAUCUGCGAAUUUUGCUGUAUAUCUC [U43C C68U] yielded a self-cleavage of 0.32.
UAACAGGGGGCCACAGCAGAAGCGUUCACGUCGCAGCCCCUGCCAGAUUCUGGUGAAUCUGCGAAUUGUGCUGUAUAUCUC [U43C C68G] showed a self-cleavage of 0.11.
In the case of UAACAGGGGGCCACAGCAGAAGCGUUCACGUCGCAGCCCCUGCCAGAUUCUGGUGAAUCUGCGAAUUAUGCUGUAUAUCUC [U43C C68A], the self-cleavage is reported as 0.28.
For UAACAGGGGGCCACAGCAGAAGCGUUCACGUCGCAGCCCCUGCGAGAUUCUGGUGAAUCUGCGAAUUCUGCUGUAUAUCUC [U43C C44G], the self-cleavage was 0.09.
With UAACAGGGGGCCACAGCAGAAGCGUUCACGUCGCAGCCCCUGCUAGAUUCUGGUGAAUCUGCGAAUUCUGCUGUAUAUCUC [U43C C44U] the self-cleavage was 0.38.
With UAACAGGGGGCCACAGCAGAAGCGUUCACGUCGCAGCCCCUGCCAUAUUCUGGUGAAUCUGCGAAUUCUGCUGUAUAUCUC [U43C G46U] the self-cleavage was 0.16.
For UAACAGGGGGCCACAGCAGAAGCGUUCACGUCGCAGCCCCUGCCAAAUUCUGGUGAAUCUGCGAAUUCUGCUGUAUAUCUC [U43C G46A], the self-cleavage was 0.22.
For UAACAGGGGGCCACAGCAGAAGCGUUCACGUCGCAGCCCCUGCCACAUUCUGGUGAAUCUGCGAAUUCUGCUGUAUAUCUC [U43C G46C], the self-cleavage was 0.16.
In the case of UAACAGGGGGCCACAGCAGAAGCGUUCACGUCGCAGCCCCUGCCAGAUUCUGGUGAAUCUGCGAAUUCUGCUGUAUUUCUC [U43C A77U], the self-cleavage is reported as 0.78.
Work on UAACAGGGGGCCACAGCAGAAGCGUUCACGUCGCAGCCCCUGCCAGAUUCUGGUGAAUCUGCGAAUUCUGCUGUAUGUCUC [U43C A77G] yielded a self-cleavage of 0.58.
